The record followed here is IntAct's records for PubMed 11230129.

The labels stand for the following.
B1: CBL-interacting serine/threonine-protein kinase 1 (Arabidopsis thaliana (Mouse-ear cress)), Q8RWC9 (parent)
chain: MVRRQEEEKKAEKGMRLGKYELGRTLGEGNFGKVKFAKDTVSGHSFAVKIIDKSRIADLNFSLQIKREIRTLKMLKHPHIVRLHEVLASKTKINMVMELVTGGELFDRIVSNGKLTETDGRKMFQQLIDGISYCHSKGVFHRDLKLENVLLDAKGHIKITDFGLSALPQHFRDDGLLHTTCGSPNYVAPEVLANRGYDGAASDIWSCGVILYVILTGCLPFDDRNLAVLYQKICKGDPPIPRWLSPGARTMIKRMLDPNPVTRITVVGIKASEWFKLEYIPSIPDDDDEEEVDTDDDAFSIQELGSEEGKGSDSPTIINAFQLIGMSSFLDLSGFFEQENVSERRIRFTSNSSAKDLLEKIETAVTEMGFSVQKKHAKLRVKQEERNQKGQVGLSVTAEVFEIKPSLNVVELRKSYGDSCLYRQLYERLLKDVGTSSPEQEIVT

Variants of B1 are the subject of the experiment. The conditions noted are these: with cnbl2_arath CBL2, Q8LAS7.
Turning to MVRRQEEEKKAEKGMRLGKYELGRTLGEGNFGKVKFAKDTVSGHSFAVKIIDKSRIADLNFSLQIKREIRTLKMLKHPHIVRLHEVLASKTKINMVMELVTGGELFDRIVSNGKLTETDGRKMFQQLIDGISYCHSKGVFHRDLKLENVLLDAKGHIKITDFGLSALPQHFRDDGLLHTTCGSPNYVAPEVLANRGYDGAASDIWSCGVILYVILTGCLPFDDRNLAVLYQKICKGDPPIPRWLSPGARTMIKRMLDPNPVTRITVVGIKASEWFKLEYIPSIPDDDDEEEVDTDDDAFSIQELGSEEGKGSDSPTIINAFQLIGMSSFLDLSGPFEQENVSERRIRFTSNSSAKDLLEKIETAVTEMGFSVQKKHAKLRVKQEERNQKGQVGLSVTAEVFEIKPSLNVVELRKSYGDSCLYRQLYERLLKDVGTSSPEQEIVT [F335P], the “effect of a mutation on the interaction” value is reported as “disrupting interaction”.

Turning to MVRRQEEEKKAEKGMRLGKYELGRTLGEGNFGKVKFAKDTVSGHSFAVKIIDKSRIADLNFSLQIKREIRTLKMLKHPHIVRLHEVLASKTKINMVMELVTGGELFDRIVSNGKLTETDGRKMFQQLIDGISYCHSKGVFHRDLKLENVLLDAKGHIKITDFGLSALPQHFRDDGLLHTTCGSPNYVAPEVLANRGYDGAASDIWSCGVILYVILTGCLPFDDRNLAVLYQKICKGDPPIPRWLSPGARTMIKRMLDPNPVTRITVVGIKASEWFKLEYIPSIPDDDDEEEVDTDDDAFSIQELGSEEGKGSDSPTIINPFQLIGMSSFLDLSGFFEQENVSERRIRFTSNSSAKDLLEKIETAVTEMGFSVQKKHAKLRVKQEERNQKGQVGLSVTAEVFEIKPSLNVVELRKSYGDSCLYRQLYERLLKDVGTSSPEQEIVT [A320P], the “effect of a mutation on the interaction” value is reported as “disrupting interaction”.

As for MVRRQEEEKKAEKGMRLGKYELGRTLGEGNFGKVKFAKDTVSGHSFAVKIIDKSRIADLNFSLQIKREIRTLKMLKHPHIVRLHEVLASKTKINMVMELVTGGELFDRIVSNGKLTETDGRKMFQQLIDGISYCHSKGVFHRDLKLENVLLDAKGHIKITDFGLSALPQHFRDDGLLHTTCGSPNYVAPEVLANRGYDGAASDIWSCGVILYVILTGCLPFDDRNLAVLYQKICKGDPPIPRWLSPGARTMIKRMLDPNPVTRITVVGIKASEWFKLEYIPSIPDDDDEEEVDTDDDAFSIQELGSEEGKGSDSATIINAFQLIGMSSFLDLSGFFEQENVSERRIRFTSNSSAKDLLEKIETAVTEMGFSVQKKHAKLRVKQEERNQKGQVGLSVTAEVFEIKPSLNVVELRKSYGDSCLYRQLYERLLKDVGTSSPEQEIVT [P315A], the “effect of a mutation on the interaction” value is “decreasing interaction”.

Consider MVRRQEEEKKAEKGMRLGKYELGRTLGEGNFGKVKFAKDTVSGHSFAVKIIDKSRIADLNFSLQIKREIRTLKMLKHPHIVRLHEVLASKTKINMVMELVTGGELFDRIVSNGKLTETDGRKMFQQLIDGISYCHSKGVFHRDLKLENVLLDAKGHIKITDFGLSALPQHFRDDGLLHTTCGSPNYVAPEVLANRGYDGAASDIWSCGVILYVILTGCLPFDDRNLAVLYQKICKGDPPIPRWLSPGARTMIKRMLDPNPVTRITVVGIKASEWFKLEYIPSIPDDDDEEEVDTDDDAFSIQELGSEEGKGSDSPTIINAFQLIGMSSFLDDSGFFEQENVSERRIRFTSNSSAKDLLEKIETAVTEMGFSVQKKHAKLRVKQEERNQKGQVGLSVTAEVFEIKPSLNVVELRKSYGDSCLYRQLYERLLKDVGTSSPEQEIVT [L332D], for which the “effect of a mutation on the interaction” value is listed as “disrupting interaction”.

Regarding MVRRQEEEKKAEKGMRLGKYELGRTLGEGNFGKVKFAKDTVSGHSFAVKIIDKSRIADLNFSLQIKREIRTLKMLKHPHIVRLHEVLASKTKINMVMELVTGGELFDRIVSNGKLTETDGRKMFQQLIDGISYCHSKGVFHRDLKLENVLLDAKGHIKITDFGLSALPQHFRDDGLLHTTCGSPNYVAPEVLANRGYDGAASDIWSCGVILYVILTGCLPFDDRNLAVLYQKICKGDPPIPRWLSPGARTMIKRMLDPNPVTRITVVGIKASEWFKLEYIPSIPDDDDEEEVDTDDDAFSIQELGSEEGKGSDSPTIINAFQLDGMSSFLDLSGFFEQENVSERRIRFTSNSSAKDLLEKIETAVTEMGFSVQKKHAKLRVKQEERNQKGQVGLSVTAEVFEIKPSLNVVELRKSYGDSCLYRQLYERLLKDVGTSSPEQEIVT [I324D], the “effect of a mutation on the interaction” value is on record as “decreasing interaction”.

Take MVRRQEEEKKAEKGMRLGKYELGRTLGEGNFGKVKFAKDTVSGHSFAVKIIDKSRIADLNFSLQIKREIRTLKMLKHPHIVRLHEVLASKTKINMVMELVTGGELFDRIVSNGKLTETDGRKMFQQLIDGISYCHSKGVFHRDLKLENVLLDAKGHIKITDFGLSALPQHFRDDGLLHTTCGSPNYVAPEVLANRGYDGAASDIWSCGVILYVILTGCLPFDDRNLAVLYQKICKGDPPIPRWLSPGARTMIKRMLDPNPVTRITVVGIKASEWFKLEYIPSIPDDDDEEEVDTDDDAFSIQELGSEEGKGSDSPTIINAFQLIGMLSFLDLSGFFEQENVSERRIRFTSNSSAKDLLEKIETAVTEMGFSVQKKHAKLRVKQEERNQKGQVGLSVTAEVFEIKPSLNVVELRKSYGDSCLYRQLYERLLKDVGTSSPEQEIVT [S327L]: the “effect of a mutation on the interaction” value is “decreasing interaction”.
